Assay results reported in article PMC8876323, “Heat Shock Transcription Factor CgHSF1 Is Required for Melanin Biosynthesis, Appressorium Formation, and Pathogenicity in Colletotrichum gloeosporioides”.

Target: T1, CgHSF1 (Colletotrichum gloeosporioides)
T1 chain: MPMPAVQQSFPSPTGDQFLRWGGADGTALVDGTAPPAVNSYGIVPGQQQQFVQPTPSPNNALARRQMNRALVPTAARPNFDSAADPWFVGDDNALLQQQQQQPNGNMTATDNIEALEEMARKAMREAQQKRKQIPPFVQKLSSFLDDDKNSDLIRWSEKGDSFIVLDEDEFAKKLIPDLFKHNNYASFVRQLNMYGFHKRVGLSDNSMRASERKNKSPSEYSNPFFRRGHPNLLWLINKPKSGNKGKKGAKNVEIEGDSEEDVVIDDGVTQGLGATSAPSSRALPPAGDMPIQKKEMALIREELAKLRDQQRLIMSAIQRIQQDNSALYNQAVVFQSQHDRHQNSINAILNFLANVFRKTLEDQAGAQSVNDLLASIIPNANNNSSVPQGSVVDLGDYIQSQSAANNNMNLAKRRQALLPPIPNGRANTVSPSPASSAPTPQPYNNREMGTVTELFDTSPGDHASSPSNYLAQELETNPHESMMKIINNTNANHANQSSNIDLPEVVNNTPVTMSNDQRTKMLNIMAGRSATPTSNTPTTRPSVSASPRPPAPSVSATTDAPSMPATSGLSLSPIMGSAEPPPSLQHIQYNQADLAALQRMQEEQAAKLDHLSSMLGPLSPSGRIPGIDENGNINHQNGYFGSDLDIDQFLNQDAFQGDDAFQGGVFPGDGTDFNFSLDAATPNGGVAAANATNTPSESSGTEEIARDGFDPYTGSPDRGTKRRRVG
Test: EMSA
Conditions: protein: recombinant; tags: His (Ni-NTA purified, pCOLD vector); blunt

B1: CMR1-probe (dsDNA)
DNA 1: CGTATCACTTGTTCGAATTTCTCACACATTCGGT
DNA 2: ACCGAATGTGTGAGAAATTCGAACAAGTGATACG
B1: binds.

B2: T4HRa-probe (dsDNA)
DNA 1: CGAGTAAGGCACGCGAAGTTCAGGAGAGAGACCT
DNA 2: AGGTCTCTCTCCTGAACTTCGCGTGCCTTACTCG
B2: binds.

B3: YG-probe (dsDNA)
DNA 1: TGTGGTGGTTTGAGAACATTCACTCAAAGCTCAC
DNA 2: GTGAGCTTTGAGTGAATGTTCTCAAACCACCACA
B3: binds.
